Measurements: the nanobody polyreactivity screen of Harvey et al. (2022)

test: yeast display, Sf9 membrane polyspecificity reagent, FACS + sequencing; frameworks hold sequencing errors
In short: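 Sorting gates, low and high (top ~1%), were placed on anti-HA fluorescence to track expression and on streptavidin fluorescence to track reagent binding. A clone's polyreactivity label is taken from the gate it came out of. The reagent was 10% biotinylated, detergent-solubilized Sf9 membrane, applied for 1 hour at 4 °C to galactose-induced yeast display cells.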

Q: For “QVQHVASGGGLVQAGGSLRLSCAASGSTFVYYAMGWYRQAPGKERELFADITKSGGSTFYAESVKGRFTISRDNAKNTVYLQMNSLKPEDTAVFYCGARYKGQYYRQGRHDYWGQGSQVTVSS”, which “polyreactivity (PSR sort gate)” value is on record?
A: Its value is “high polyreactivity”.

Q: Which “polyreactivity (PSR sort gate)” value does the source give for “QVQHVDSGGGLVQAGGSLRLSCAASGFIFSYYAMGWYRQAPVKERELVAGISYNGDRTYYADSVKGRFTISRDNAKNTFYLQMKSLKPEDTAVYYCNVVWVLGGWYDLEYDYWGQGTQVTVSS” here?
A: The value was “high polyreactivity”.

Q: Which “polyreactivity (PSR sort gate)” value does the source give for “QVQHVDSGGGLVQAGGSLRLSCAASGRILYSYAMGWYRQAPGKERELVAVITTRGGTYYADSVKGRFTISRDNAKNTVYLQMNSLKPEDTAVYYCNARRYPSYKYDYWGQGTQVTVSS” here?
A: The value was “high polyreactivity”.

Q: Which “polyreactivity (PSR sort gate)” value does the source give for “QVQHVESAGGLVQAGGSLPLRCAASGSTFSPNALGGYSHAHGKERELVARITRSGSRTSYADSLKGRFTISRDNAKNPVYFQMNSLKPEDTAVYYCAAEGPKQYDYWGQGTHVTVSS” here?
A: Its value is “low polyreactivity”.

Q: Which “polyreactivity (PSR sort gate)” value does the source give for “QVQHVESAGGLVQAGGSLRLSCAASGRTFDYNAMGWYRQAPGKERELVAAISWRGGNTYYADSVKGRFTISRDNAKNTVYLQMNSLKPEDTAVYYCGAVYRYSTRNYGYWGQGTQVTVSS” here?
A: Its value is “high polyreactivity”.

Q: For “QVQHVESAGGLVQAGGSLRLSCAASGSIFPYNAMGWYRQAPGKERELVAAISYSGSTTYYADSVKRRFTISRDNSKNTVYLQMNSLKPEDTAVYYCNTLSWYQYDYWGQGTQVTVSS”, which “polyreactivity (PSR sort gate)” value is on record?
A: Its value is “high polyreactivity”.

Q: Which “polyreactivity (PSR sort gate)” value does the source give for “QVQHVESGGALVQAAGSLSLRCAASGSTFGYNAMGWYRQAPSKEMELVAVITDSGGSSYYADSVKGRFTISRDNPKNTVYVQMHSLNPEDTAVYYCAKFYGLVVSGHVILSGFEYWGQGTLVTVSS” here?
A: Its value is “low polyreactivity”.

Q: Which “polyreactivity (PSR sort gate)” value does the source give for “QVQHVESGGALVQAGGSLRLSCAASGLIYALSAMGWDRQAPGKEMELVAAIDWSGGSTYYADSVKGRFTISRDNAKNTVYVQMNCLKPEDTAVYYCAADISSSPGNDYWGQGTQLTVSS” here?
A: Its value is “high polyreactivity”.

Q: For “QVQHVESGGCLVQAGGSLRLSCAASGITFEWYAMGWYRQAPGKESELVADITSGDSTNYADSVKGRFTISRDNAQNTVYLQMNSLKPEDTAVYYWAATFIGQFFSWYYYWGQGTQVTVSS”, which “polyreactivity (PSR sort gate)” value is on record?
A: Its value is “low polyreactivity”.

Q: With “QVQHVESGGDLVQAGGSLRLSCAASGSTSFHNAMGWDIQAPGKEREFVAAMSGSGDRTNYADSVKGRFTISRDNAKNTVYLQMNSLKPEDTAVYYCAARGQPGRRTSSGFFSGGYWGQGTQVTVSS” as the sequence, how does the “polyreactivity (PSR sort gate)” value read?
A: Its value is “high polyreactivity”.

Q: For “QVQHVESGGGLDQAGGSLRFSCAASGTIFVYNAMGSYREAPGKERELVAAMDTVGSTNYADSVKGRFTISRDNAKNTVYLQMNSLKPEDTAVYYCAVVTPYWSFFEQVIPSNYWGQGSQVTVSS”, which “polyreactivity (PSR sort gate)” value is on record?
A: The value was “low polyreactivity”.

Q: With “QVQHVESGGGLDQAGGSLRLSCAASGFIFGWYAMGWYRPAPGKERELVAAITWSGVRTYYADSVKGRFTISRDNAKNTVYLQMHSLKPEDTAVYYCARAGGSVGRGYKDQDGRGDYWGQGTEVTVSS” as the sequence, how does the “polyreactivity (PSR sort gate)” value read?
A: The value was “low polyreactivity”.

Q: Which “polyreactivity (PSR sort gate)” value does the source give for “QVQHVESGGGLDQAGGSLRLSCAASGFIFYDYMGWDRQAPGKQRELVAVISYSGSSTNYAYSVKGRFTITRDNAKMTVYLQINSLKPEDTAVYYWAARIVNGWDYDFWGQGSQVTVSS” here?
A: Its value is “low polyreactivity”.

Q: Which “polyreactivity (PSR sort gate)” value does the source give for “QVQHVESGGGLFQAGGSLRLSCAASGITFEYYAMGWYRQAPGKERELVAAISGDGSTYYADSVKGRFTISRDNAKNTVYLQMNSLKPEDTAVYYCAAVYYRGFLYYRYYYWGQGTQVTVSS” here?
A: The value was “high polyreactivity”.

Q: With “QVQHVESGGGLLQAGGSLRLSCAASGRTFGRYAMGWYRPAPGKERELVADIDYGGGSTYYADSVKGRFTISRDNAKNTFYLQMNSLKPEDTAVYYCNAGRDIGWGYHMDYWGQGTQVTVSS” as the sequence, how does the “polyreactivity (PSR sort gate)” value read?
A: The value was “high polyreactivity”.

Q: With “QVQHVESGGGLVHAGCRLRLSCAASGRTFIKYAMGWYRQAPGTERELVAGISGGGASTYYADSVKGRFTISRDNAKNTVYLQMNSLKPEETAVYYFAKLSPRGRRYDYWGQGTQVTVSS” as the sequence, how does the “polyreactivity (PSR sort gate)” value read?
A: The value was “high polyreactivity”.

Q: For “QVQHVESGGGLVHAGGSLRLSCAASGTTFYFNPMGWSRQAPGKERELVASITWRGVSTYYADSVKGRFTISRDNAKNTVYLHMNSLNPEDTAVYYCAVAAGIPQRRFYYWGQGTQVTVSS”, which “polyreactivity (PSR sort gate)” value is on record?
A: Its value is “high polyreactivity”.

Q: Which “polyreactivity (PSR sort gate)” value does the source give for “QVQHVESGGGLVKAGGSLRLSCAATGSIFSPYAMGWYILAPGKERELVAAISRSGRTHYADSVKGRFTISRDNAKHTVYLQMNSLKADDTAVYFCAAGVVYGYYYWGQGTQVTVSS” here?
A: The value was “high polyreactivity”.

Q: For “QVQHVESGGGLVQAGASLRLSCAASGFIFPSYVKGWYRQAPWKERDLVATISRSGGSTYYADSVKGRFTISRDNAKNTVYLQMNSLKPEDTAVYYCAAYPYSYLQLMDYWGQGTQVTVSS”, which “polyreactivity (PSR sort gate)” value is on record?
A: Its value is “high polyreactivity”.

Q: For “QVQHVESGGGLVQAGCSLRLSCAASGFTFYSYAMGWYSQTPGKERELVASISRTGGGTYYADSVKGSFTISRDNAKNTVSLQMNSLIPVDTAVYYCNASPNIRVRYYYRKYDYWGQGTQVTVSS”, which “polyreactivity (PSR sort gate)” value is on record?
A: Its value is “high polyreactivity”.

Q: Which “polyreactivity (PSR sort gate)” value does the source give for “QVQHVESGGGLVQAGCSLRLSCAASGRTFSSNAMGWYRQAHGKVRELVAVISSGGSTYYADSVKGRFTISRDNAKNTVYLEMYSMKPEDTAVYICAAAVGPSGYYYESDYWGQGTQETVSS” here?
A: Its value is “high polyreactivity”.

Q: For “QVQHVESGGGLVQAGGRLRLRCAASGSTFDDNAKGWYIHAPGKERELVAGISDGDDSTNYADSVKGRFTISRDNAKNTVYFQMNRLKPEDTAVYYCNARYVRTYGVRFGYDYWGQGTQLTVSS”, which “polyreactivity (PSR sort gate)” value is on record?
A: The value was “low polyreactivity”.

Q: For “QVQHVESGGGLVQAGGRLRLSCAASGGIYYYAMGWYRQAPGKERELVAAISSGGGNTNYADSVKGRFTISRDNAKNTVYLQMNSLKPEDTAVYYCATDGFIPTYSYTEIGYDYWGQGTQVTVSS”, which “polyreactivity (PSR sort gate)” value is on record?
A: The value was “low polyreactivity”.

Q: With “QVQHVESGGGLVQAGGRLRLSCAASGSTFQLYAMGWYRQAPGKERELVASISWSGGSTYYADSVTGRFTISRDNAKNTVYLQMNSLKPEDTAVYYCNADFWWRYRPGAVFRSYGYWGQGTQVTVSS” as the sequence, how does the “polyreactivity (PSR sort gate)” value read?
A: The value was “low polyreactivity”.

Q: Which “polyreactivity (PSR sort gate)” value does the source give for “QVQHVESGGGLVQAGGRLRLSCPATGSTFTWYALASYRQAPGKERELVAAISRGGSTNYADSVKGRFTISRDNAKNSVYLQMNSLIPEDTAVYYCAAESYWRDVYWGQGTQVTVSS” here?
A: The value was “low polyreactivity”.

Q: Which “polyreactivity (PSR sort gate)” value does the source give for “QVQHVESGGGLVQAGGSLPLSGAASGLTFTRYAMGWYRQAPGKESELVAAISKNGGSTYYADSVTGRFTISRDNAKYTVYLQMNSLKPEDTAVYYCAARRSTSYPAGYDYWVQGTQVTVSS” here?
A: Its value is “high polyreactivity”.

Q: For “QVQHVESGGGLVQAGGSLRLCCAATGNTFGINAMGWYRQAPGKERELDASITGSAGSTYYADSVKGRFTISRDNAKNTVYLQMNSLKPEDTAVYYCNAGARGVMSQPWVIKYYYWGQGTQGTVSS”, which “polyreactivity (PSR sort gate)” value is on record?
A: Its value is “high polyreactivity”.

Q: For “QVQHVESGGGLVQAGGSLRLRCAASARTFLANAMGWYRQAPGKERELLAAITYSGGRTYYADSVKGRFTISRDNAKNTVYLQMNSLKPEDTAVYYCAAEGKVTSQYTMDYWGLGTQVTVSS”, which “polyreactivity (PSR sort gate)” value is on record?
A: The value was “high polyreactivity”.

Q: Which “polyreactivity (PSR sort gate)” value does the source give for “QVQHVESGGGLVQAGGSLRLRCAASGSTFQYNPMGWYRQAPGKERELVASITRGGNTNYADSVKGRFTISRDNAKNTVYLQMNSLKPEDTAVYYCAARSTYRVSHVDYWGQGTQVTVSS” here?
A: The value was “low polyreactivity”.

Q: With “QVQHVESGGGLVQAGGSLRLSCAASALTFSSNAMGWYRQAPGKERELVAVITNGGSTNYADSVKGRLTISRDNAKNTVYLQMNSLKPEDTAVYYCAIDGGPAQDIGMDYWGQGTHVTVSS” as the sequence, how does the “polyreactivity (PSR sort gate)” value read?
A: The value was “low polyreactivity”.
